Results from patent US20210290676A1, “IMPROVING THE EFFICACY AND SAFETY OF ADOPTIVE CELLULAR THERAPIES” (University of Southern California, priority 2018, published 2021).

Experiment: Leukapheresis with and without mobilization and manufacturing of CAR-T/TCR-T cells from cancer patients
Type: in vivo, human
Conditions: mobilization prior to leukapheresis
Description: A study is conducted to compare the generation of cell therapy products from cancer patients who have received 2 or more cycles of prior chemotherapy. Patients with different types of different cancers (e.g., diffuse large B cell lymphoma, acute B-ALL, CLL, multiple myeloma, breast cancer, ovarian cancer, lung cancer etc.) are eligible. Leukapheresis products are collected from the subjects with and without mobilization with Perixafor (0.24 mg/kg subcutaneously daily on days 1-3). T cells are isolated and used for manufacturing of CAR-T and TCR-T cells using lentiviral mediated gene transduction as described in the preceding sections.

B1: G-CSF: cytokine, G-CSF (filgrastim, Amgen) (protein, chains of the INN, looked up)
chain: MTPLGPASSLPQSFLLKCLEQVRKIQGDGAALQEKLCATYKLCHPEELVLLGHSLGIPWAPLSSCPSQALQLAGCLSQLHSGLFLYQGLLQALEGISPELGPTLDTLQLDVADFATTIWQQMEELGMAPALQPTQGAMPAFASAFQRRAGGVLVASHLQSFLEVSYRVLRHLAQP
yield of leukapheresis product for generation of CAR-T cells: improve the yield
